Drawing on publication PMC9691700, “CD147 contributes to SARS-CoV-2-induced pulmonary fibrosis” (Signal Transduction and Targeted Therapy, 2022), this text covers Kd for one molecule.

This assay concerns the target T1, His-Spike RBD (40592-V08H) (SARS-CoV-2, UniProt P0DTC2 319-541).
T1 construct: source: bought: Sino Biological
The experiment in a line: SPR; Biacore T200, CM5 sensor chip; RBD fixed to the chip by amino coupling; CD147 flowed over; binding time 90 s, dissociation time 120 s. Particulars: both partners purified.

B1: Human His-CD147 (receptor)
chain: GTVFTTVEDLGSKILLTCSLNDSATEVTGHRWLKGGVVLKEDALPGQKTEFKVDSDDQWGEYSCVFLPEPMGTANIQLHGPPRVKAVKSSEHINEGETAMLVCKSESVPPVTDWAWYKITDSEDKALMNGSESRFFVSSSQGRSELHIENLNMEADPGQYRCNGTSSKGSDQAIITLRVRSHLAAL
notes: CD147 (basigin), human; also called human CD147; hCD147
In the case of B1, the affinity, expressed as Kd, was 4.47 µM. In other words, the single-digit micromolar range.
